Laboratory results taken from the supplement of paper PMC10201428.
± gives the standard deviation of the averaged measurements.

B1: library; a variant is named by its letters at N, in order (parent)
chain: ACATTTGTTGATACAACCATAAAATGATAATTACACCCATAAATTGATAATTATCACACCCANNNNNNNNNNNNNNCTCTGATCATAGTCAGACCAACATTGCTACGACCCGTATTCGCACCGACAC

Tests used:
[1] = variants of: B1; assay: relative integration efficiency (T-RL orientation) vs wild-type transposon end (log2 (normalized fold change)); transposon end mutated: right end (5 bp flank + 75 bp right end); higher = more efficient transposition; conditions: with VchCAST RNA-guided transposition machinery (E. coli BL21(DE3) host, lacZ target)
In short: (§1)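 Barcoded pools of 1549 left-end or 1849 right-end transposon variants were cloned into a pUC57 mini-transposon donor. Each pool was co-transformed with a T7-driven effector plasmid (CRISPR array, tniQ-cas8-cas7-cas6, tnsA-tnsB-tnsC) into E. coli BL21(DE3) and plated with 0.1 mM IPTG at 37°C for 18 h. Input plasmids and genomic integration junctions were PCR-amplified and Illumina-sequenced, with two biological output replicates and four wild-type barcodes as reference. Relative integration efficiency is output/input barcode abundance fold change, normalised to wild-type barcodes and log-transformed.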

[2] = variants of: B1; assay: relative integration efficiency (T-LR orientation) vs wild-type transposon end (log2 (normalized fold change)); transposon end mutated: right end (5 bp flank + 75 bp right end); higher = more efficient transposition; conditions: with VchCAST RNA-guided transposition machinery (E. coli BL21(DE3) host, lacZ target)
In short: as §1

Variant | relative integration efficiency (log2) [1] | relative integration efficiency (log2) [2]
ATTTAACTATAACG A41T | -0.673 ± 0.15 | 2.347 ± 0.0099
ATTTAACTATAACG A41C | -1.53 ± 0.21 | 1.39 ± 0.29
ATTTAACTATAACG C18A | -0.906 ± 0.082 | 2.01 ± 0.13
ATTTAACTATAACG C18G | -1.04 ± 0.083 | 1.98 ± 0.099
ATTTAACTATAACG C18T | -0.685 ± 0.013 | 2.16 ± 0.14
TAAATTTATATTGC | -0.361 ± 0.18 | 1.7 ± 0.14
ATTTAACTATAACG A19T | -1.53 ± 0.24 | 2.1 ± 0.09
ATTTAACTATAACG A19C | -1.84 ± 0.3 | 1.06 ± 0.42
ATTTAACTATAACG A19G | -0.904 ± 0.018 | 2.08 ± 0.037
ATTTAACTATAACG A29T | -1.09 ± 0.32 | 2.6 ± 0.24
ATTTAACTATAACG A29C | -1.83 ± 0.43 | 1.8 ± 0.15
TTAATTGATATTGC | -0.072 ± 0.011 | 0.636 ± 0.14
ATTTAACTATAACG A62C | -1.03 ± 0.27 | 2.22 ± 0.21
TTTATTGATATTGC | 0.0323 ± 0.048 | 0.91 ± 0.071
TAATATGATATTGC | -0.0671 ± 0.049 | 0.438 ± 0.31
TACCGGGATATTGC | -0.561 ± 0.028 | 2.282 ± 0.0082
GCAATTGATATTGC | -0.508 ± 0.047 | 2.25 ± 0.12
ATTTAACTATAACG G10C | -1.15 ± 0.31 | 0.7 ± 0.19
ATTTAACTATAACG G10A | -0.62 ± 0.18 | 1.89 ± 0.087
ATTTAACTATAACG G10T | -1.54 ± 0.43 | 0.15 ± 0.026
TAAATTGATCGGTC | -0.277 ± 0.017 | 1.42 ± 0.094
TAAATTGCTATTGC | -0.207 ± 0.014 | 0.841 ± 0.12
ATTTAACTATAACG C14G | -0.937 ± 0.17 | 1.76 ± 0.15

Variant | relative integration efficiency (log2) [1] | relative integration efficiency (log2) [2]
TCCATTGATATTGC | -0.657 ± 0.14 | 2.16 ± 0.029
ATAATTGATATTGC | -0.135 ± 0.017 | 1.11 ± 0.1
ATTTAACTATAACG A53G | -1.38 ± 0.34 | 2.239 ± 0.0053
ATTTAACTATAACG A53C | -1.32 ± 0.33 | 2.49 ± 0.26
ATTTAACTATAACG A56T | -0.909 ± 0.39 | 2.57 ± 0.2
ATTTAACTATAACG A56C | -1.09 ± 0.21 | 2.32 ± 0.19
ATTTAACTATAACG A58C | -0.52 ± 0.37 | 2.86 ± 0.073
ATTTAACTATAACG A58T | -0.708 ± 0.029 | 2.39 ± 0.19
TAAATTGATATTGT | 0.127 ± 0.093 | 0.155 ± 0.13
ATTTAACTATAACG T45A | -1.14 ± 0.22 | 1.93 ± 0.065
ATTTAACTATAACG T45G | -1.16 ± 0.28 | 1.56 ± 0.031
TAAATTGTTATTGC | -0.347 ± 0.057 | 1.61 ± 0.16
ATTTAACTATAACG T9G | -0.534 ± 0.082 | 2.39 ± 0.12
ATTTAACTATAACG T9A | -0.86 ± 0.087 | 2.15 ± 0.18
ATTTAACTATAACG T9C | -0.756 ± 0.26 | 2.493 ± 0.0031
ATTTAACTATAACG A13C | -0.7 ± 0.17 | 2.25 ± 0.23
ATTTAACTATAACG A13T | -1.09 ± 0.14 | 1.84 ± 0.15
ATTTAACTATAACG A35T | -1 ± 0.29 | 2.07 ± 0.25
ATTTAACTATAACG A35C | -0.737 ± 0.15 | 2.11 ± 0.15
TAAATTGGTATTGC | 0.0075 ± 0.082 | 0.963 ± 0.065
ATTTAACTATAACG A15T | -1.1 ± 0.15 | 1.8 ± 0.077
ATTTAACTATAACG A15C | -0.749 ± 0.29 | 2.73 ± 0.074
TATATTGATATTGC | 0.155 ± 0.039 | 0.337 ± 0.47

Variant | relative integration efficiency (log2) [1] | relative integration efficiency (log2) [2]
TAAATTGATTTTGC | -0.0591 ± 0.014 | 0.338 ± 0.22
ATTTAACTATAACG G46A | -1.36 ± 0.26 | 2.007 ± 0.0045
ATTTAACTATAACG G46C | -1.79 ± 0.26 | 1.05 ± 0.12
ATTTAACTATAACG G46T | -1.25 ± 0.4 | 1.87 ± 0.23
ATTTAACTATAACG C61G | -0.633 ± 0.14 | 2.57 ± 0.16
ATTTAACTATAACG C61A | -0.657 ± 0.15 | 2.0647 ± 0.00092
TAAATTGATGTTGC | -0.0405 ± 0.033 | 0.475 ± 0.053
ATTTAACTATAACG G7C | -1.39 ± 0.16 | 1.24 ± 0.17
ATTTAACTATAACG T31G | -1.44 ± 0.31 | 2.54 ± 0.17
ATTTAACTATAACG T31A | -1.32 ± 0.36 | 2.39 ± 0.16
ATTTAACTATAACG T31C | -0.932 ± 0.22 | 2.62 ± 0.071
TAACTTGATATTGC | 0.11 ± 0.027 | 0.325 ± 0.16
ATTTTTGATATTGC | -0.244 ± 0.095 | 1.64 ± 0.1
ATTTAACTATAACG C36A | -0.593 ± 0.052 | 2.4 ± 0.13
ATTTAACTATAACG C36G | -1.16 ± 0.22 | 1.95 ± 0.11
ATTTAACTATAACG C55A | -1.63 ± 0.35 | 2.34 ± 0.071
ATTTAACTATAACG C55T | -1.15 ± 0.35 | 2.56 ± 0.14
ATTTAACTATAACG C55G | -1.37 ± 0.28 | 2.381 ± 0.011
ATTTAACTATAACG C57G | -0.953 ± 0.42 | 2.5 ± 0.16
ATTTAACTATAACG C57A | -0.68 ± 0.085 | 2.48 ± 0.17
ATTTAACTATAACG A43T | -0.99 ± 0.12 | 2.15 ± 0.11
ATTTAACTATAACG A43C | -0.798 ± 0.095 | 2.4 ± 0.038
ATTTAACTATAACG A43G | -0.724 ± 0.15 | 2.29 ± 0.09

Variant | relative integration efficiency (log2) [1] | relative integration efficiency (log2) [2]
ATTTAACTATAACG T54A | -1.14 ± 0.19 | 2.49 ± 0.12
ATTTAACTATAACG T54C | -1.04 ± 0.22 | 2.37 ± 0.24
ATTTAACTATAACG T54G | -1.12 ± 0.37 | 2.49 ± 0.13
TAATTTGATATTGC | 0.169 ± 0.039 | 0.241 ± 0.14
ATTTAACTATAACG T44G | -0.646 ± 0.027 | 2.17 ± 0.033
ATTTAACTATAACG T44A | -0.682 ± 0.22 | 2.32 ± 0.13
ATTTAACTATAACG T44C | -0.948 ± 0.24 | 2.28 ± 0.14
ATTTAACTATAACG A23C | -1.16 ± 0.088 | 1.98 ± 0.17
ATTTAACTATAACG A23G | -0.928 ± 0.18 | 2.07 ± 0.26
ATTTAACTATAACG A23T | -0.809 ± 0.12 | 1.952 ± 0.015
TAAATTGATCTTGC | 0.011 ± 0.051 | 0.816 ± 0.13
TACATTGATATTGC | -0.674 ± 0.11 | 1.79 ± 0.13
TATTTTGATATTGC | -0.123 ± 0.052 | 0.19 ± 0.27
ATTTAACTATAACG A33C | -1.12 ± 0.26 | 2.34 ± 0.17
ATTTAACTATAACG A33G | -0.971 ± 0.32 | 2.42 ± 0.046
TAAGTTGATATTTT C59A | 0.0617 ± 0.048 | -0.156 ± 0.28
ATTTAACTATAACG A24G | -0.674 ± 0.13 | 2.25 ± 0.086
ATTTAACTATAACG A24T | -0.752 ± 0.19 | 2.39 ± 0.024
ATTTAACTATAACG A24C | -0.878 ± 0.18 | 2.28 ± 0.015
TAAATTGATCGTGC | -0.217 ± 0.047 | 0.973 ± 0.038
ATTTAACTATAACG A30G | -1.51 ± 0.13 | 2.11 ± 0.26
ATTTAACTATAACG A30C | -1.2 ± 0.42 | 2.682 ± 0.016
ATTTAACTATAACG A30T | 0.406 ± 0.54 | 4.401 ± 0.043
